Patent publication US20170058042A1 (Genentech, published 2017)

What was measured:
[1] = molecular target: T1, cynomolgus monkey Ly6E (native, in cynomolgus monkey tissues) (cynomolgus monkey, UniProt Q16553 21-101 (human entry)); assay: IHC on normal cynomolgus monkey tissues
T1 construct: Endogenous protein in normal cynomolgus monkey tissue sections (IHC); also called cyno Ly6E
T1 chain: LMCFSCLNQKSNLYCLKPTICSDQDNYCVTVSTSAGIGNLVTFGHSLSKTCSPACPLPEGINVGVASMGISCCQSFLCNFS

[2] = molecular target: T2, human Ly6E (native, in human tumor cells, xenograft tumors and human tissues) (human, UniProt Q16553 21-101); assay: cell-based or functional assay
T2 sequence: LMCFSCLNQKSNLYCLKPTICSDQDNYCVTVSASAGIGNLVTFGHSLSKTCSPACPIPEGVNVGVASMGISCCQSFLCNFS

B1: rabbit anti-Ly6E antibody clone GEN-93-8-1 (antibody, V domains shown)
VH: QSVEESGGRLVTPGTPLTLTCATSGFSLSIYDMTWVRQAPGKGLEWIGVIYTSGGAYYANWAKGRFTISRTSTTVDLRMTSPTTEDTATYFCVRNWAHGSDLWGQGTLVTVSS
VL: DPVVTQTPSSASAAVGGTVSISCQSSQSVYNNNYLGWYQQKPGQPPKLLIYDASKLASGVPSRFKASGSGTQFALTISDLECDDAATYYCVGGYPGSLNVFGGGTEVVVK
notes: Rabbit monoclonal IgG; also called antibody GEN-93-8-1
[1]
  binding result: binds

B2: humanized anti-Ly6E (hu9B12 v12) ADC (MC-vc-PAB-MMAE) (antibody, V domains shown)
VH: EVQLVESGPALVKPTQTLTLTCTVSGFSLTGYSVNWIRQPPGKALEWLGMIWGDGSTDYNSALKSRLTISKDTSKNQVVLTMTNMDPVDTATYYCARDYYFNYASWFAYWGQGTLVTVSS
VL: DIQMTQSPSSLSASVGDRVTITCSASQGISNYLNWYQQKPGKTVKLLIYYTSNLHSGVPSRFSGSGSGTDYTLTISSLQPEDFATYYCQQYSELPWTFGQGTKVEIK
[2]
  EC50 (cell killing, CellTiter-Glo, HCC1569 X2 cells, 5 days): 4 nM
